In the supplement of paper PMC11136658:

Test system: peptide library, one residue held at a place counted from the Y acceptor
Test: relative phosphorylation of the sub-library (ratio to the mean residue at this position); higher = residue favoured
In short: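 Peptide library mixtures, biotinylated and centred on Tyr, each fixed one residue at one position from −5 to +5. Purified recombinant kinases were incubated with them for 90 min in 384-well plates alongside 50 μM ATP and γ-32P-ATP, and the captured, rinsed peptides on streptavidin membranes were measured by phosphorimaging and ImageQuant. Normalization divided each position's intensities by the sum of its 18 randomized residues (16 for the Ser/Thr-free library) and multiplied by that number, so that values give phosphorylation relative to the mean randomized residue.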

Sequence of PDGFRA, construct: aa550-end, human (P16234 550-1089, looked up): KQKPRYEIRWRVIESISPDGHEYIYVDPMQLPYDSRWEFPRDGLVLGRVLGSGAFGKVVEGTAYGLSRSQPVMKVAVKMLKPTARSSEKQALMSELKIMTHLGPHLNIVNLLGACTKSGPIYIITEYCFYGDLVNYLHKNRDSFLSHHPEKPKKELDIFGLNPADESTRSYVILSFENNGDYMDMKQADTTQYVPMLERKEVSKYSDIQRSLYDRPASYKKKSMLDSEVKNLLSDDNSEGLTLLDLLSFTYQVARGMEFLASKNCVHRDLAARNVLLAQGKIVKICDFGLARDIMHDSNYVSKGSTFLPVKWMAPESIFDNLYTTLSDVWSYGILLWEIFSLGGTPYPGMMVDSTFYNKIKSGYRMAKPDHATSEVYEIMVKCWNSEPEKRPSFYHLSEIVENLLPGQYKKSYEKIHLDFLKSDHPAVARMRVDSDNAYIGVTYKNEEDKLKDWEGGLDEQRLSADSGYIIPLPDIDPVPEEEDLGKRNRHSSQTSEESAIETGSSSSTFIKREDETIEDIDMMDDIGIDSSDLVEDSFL
Sequence of TEC, construct: Full length, human (P42680 whole entry, looked up): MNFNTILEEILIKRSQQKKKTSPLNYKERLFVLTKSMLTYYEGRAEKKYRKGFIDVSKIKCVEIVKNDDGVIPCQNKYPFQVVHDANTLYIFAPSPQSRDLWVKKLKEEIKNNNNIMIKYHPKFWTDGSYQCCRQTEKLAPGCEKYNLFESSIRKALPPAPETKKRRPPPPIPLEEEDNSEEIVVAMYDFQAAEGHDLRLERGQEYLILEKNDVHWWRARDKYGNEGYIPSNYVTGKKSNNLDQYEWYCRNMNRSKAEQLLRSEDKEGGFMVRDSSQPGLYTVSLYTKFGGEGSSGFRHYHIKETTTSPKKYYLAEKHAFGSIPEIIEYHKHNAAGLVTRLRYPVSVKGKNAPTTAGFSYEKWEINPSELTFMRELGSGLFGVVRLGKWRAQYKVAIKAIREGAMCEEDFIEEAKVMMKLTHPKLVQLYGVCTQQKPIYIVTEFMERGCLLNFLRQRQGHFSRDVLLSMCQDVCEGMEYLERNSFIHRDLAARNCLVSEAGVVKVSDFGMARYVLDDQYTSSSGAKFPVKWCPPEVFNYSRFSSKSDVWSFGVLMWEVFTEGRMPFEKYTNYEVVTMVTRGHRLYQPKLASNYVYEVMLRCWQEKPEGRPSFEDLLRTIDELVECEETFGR

PDGFRA, construct: aa550-end, human (from UniProt P16234)
relative phosphorylation
Conditions | at +1 | at +2 | at +3 | at +4 | at +5 | at -1 | at -2 | at -3 | at -4 | at -5
A fixed | 0.719 | 0.633 | 0.549 | 0.784 | 0.982 | 0.729 | 1.02 | 0.85 | 1.04 | 0.882
D fixed | 0.273 | 0.434 | 0.302 | 0.674 | 0.645 | 1.32 | 0.947 | 0.97 | 0.898 | 0.812
E fixed | 0.492 | 0.583 | 0.198 | 0.613 | 0.565 | 0.962 | 0.814 | 1.14 | 0.849 | 0.737
F fixed | 2.05 | 1.59 | 1.61 | 1.05 | 1.35 | 1.37 | 0.853 | 0.954 | 1.21 | 1.11
G fixed | 0.34 | 0.427 | 0.755 | 0.98 | 0.943 | 0.594 | 1.09 | 1.07 | 1.08 | 1.03
H fixed | 1.43 | 1.02 | 0.972 | 1.34 | 1.1 | 1.47 | 1.01 | 1.09 | 0.962 | 1.15
I fixed | 1.66 | 1.03 | 2.09 | 0.922 | 0.999 | 1.36 | 0.94 | 0.823 | 0.916 | 1.1
K fixed | 0.699 | 1.12 | 1.02 | 1.05 | 1.08 | 0.509 | 0.835 | 0.959 | 1.06 | 0.995
L fixed | 1.31 | 1.4 | 1.53 | 0.808 | 1.12 | 1.18 | 1 | 0.905 | 1.06 | 1.11
M fixed | 1.13 | 1.2 | 1.13 | 1.17 | 1.02 | 0.892 | 1 | 0.967 | 0.878 | 1.1
N fixed | 0.671 | 0.856 | 0.748 | 0.987 | 0.967 | 1.49 | 1.06 | 1.13 | 0.832 | 1.07
P fixed | 0.31 | 0.863 | 0.928 | 1.11 | 0.943 | 0.931 | 1.34 | 1.08 | 1.06 | 0.885
Q fixed | 1.25 | 0.928 | 0.632 | 1.01 | 0.92 | 1.07 | 1.13 | 1.11 | 1.07 | 1.04
R fixed | 0.768 | 1.56 | 1.19 | 1.49 | 1.17 | 0.55 | 1.03 | 1.09 | 1.05 | 1.19
S fixed | 0.655 | 0.633 | 0.604 | 0.91 | 0.932 | 0.694 | 1.03 | 1.02 | 0.801 | 0.817
T fixed | 0.848 | 0.606 | 0.793 | 0.97 | 0.888 | 0.945 | 0.917 | 0.977 | 0.745 | 0.856
V fixed | 1.92 | 0.851 | 1.62 | 0.839 | 0.98 | 1.02 | 0.954 | 0.778 | 0.894 | 0.86
W fixed | 1.46 | 2.27 | 1.33 | 1.31 | 1.39 | 0.91 | 1.03 | 1.07 | 1.6 | 1.26
pThr fixed | 0.498 | 0.395 | 0.237 | 0.467 | 0.482 | 0.675 | 0.695 | 0.693 | 0.744 | 0.786
pTyr fixed | 1.75 | 1.49 | 0.414 | 0.788 | 0.626 | 1.09 | 0.876 | 1.12 | 1.16 | 1.02

TEC, construct: Full length, human (from UniProt P42680)
relative phosphorylation
Conditions | at +1 | at +2 | at +3 | at +4 | at +5 | at -1 | at -2 | at -3 | at -4 | at -5
A fixed | 1.7 | 0.954 | 0.562 | 0.694 | 0.847 | 0.4 | 1.06 | 0.921 | 1.1 | 0.884
D fixed | 0.761 | 0.712 | 0.353 | 0.726 | 0.87 | 0.463 | 1.44 | 1.42 | 1.41 | 1.26
E fixed | 2.13 | 0.838 | 0.301 | 0.674 | 0.934 | 0.454 | 1.82 | 1.65 | 1.51 | 1.06
F fixed | 0.677 | 1.07 | 1.65 | 1.12 | 1.11 | 1.33 | 0.585 | 1.32 | 0.973 | 0.94
G fixed | 0.565 | 0.515 | 0.568 | 0.821 | 0.921 | 0.263 | 1.11 | 0.917 | 1.03 | 1.02
H fixed | 0.582 | 1.04 | 1.2 | 1.55 | 1.24 | 0.555 | 1.04 | 0.944 | 0.967 | 1.13
I fixed | 1.21 | 0.776 | 1.75 | 0.789 | 0.637 | 5.08 | 0.736 | 0.746 | 0.857 | 0.79
K fixed | 0.295 | 0.932 | 0.78 | 1.23 | 1.23 | 0.279 | 0.915 | 0.682 | 0.924 | 1.06
L fixed | 0.935 | 0.918 | 1.4 | 0.889 | 0.838 | 2.88 | 0.9 | 0.814 | 0.955 | 0.921
M fixed | 1.58 | 0.86 | 1.25 | 0.98 | 0.956 | 1.26 | 0.806 | 0.932 | 0.945 | 1.01
N fixed | 0.466 | 1.2 | 0.692 | 0.896 | 1.01 | 0.433 | 1.19 | 1.25 | 1.01 | 1.21
P fixed | 0.143 | 0.67 | 0.721 | 0.986 | 1.07 | 0.38 | 1.13 | 0.962 | 0.989 | 0.949
Q fixed | 1.33 | 1.07 | 0.643 | 1.05 | 1.03 | 0.441 | 1.22 | 0.967 | 1.28 | 1.2
R fixed | 0.413 | 1.66 | 1.32 | 1.61 | 1.36 | 0.274 | 0.882 | 0.773 | 0.891 | 1.15
S fixed | 1.22 | 1.31 | 0.67 | 0.871 | 0.997 | 0.409 | 0.942 | 1.1 | 0.771 | 0.919
T fixed | 1.05 | 1.13 | 0.702 | 0.817 | 0.924 | 0.801 | 0.856 | 0.78 | 0.626 | 0.754
V fixed | 1.57 | 1.03 | 1.26 | 0.785 | 0.656 | 1.7 | 0.782 | 0.775 | 0.785 | 0.887
W fixed | 1.38 | 1.31 | 2.18 | 1.51 | 1.37 | 0.596 | 0.589 | 1.05 | 0.981 | 0.856
pThr fixed | 1.91 | 1.66 | 0.298 | 0.525 | 0.563 | 0.786 | 1.26 | 0.929 | 1.03 | 0.999
pTyr fixed | 1.08 | 1.3 | 0.4 | 0.683 | 0.779 | 2.06 | 0.955 | 1.08 | 1.02 | 0.894
